As usually defined, the Kd is the equilibrium constant for the complex coming apart. Lower therefore signals higher affinity. What is called IC50 is the concentration needed to halve the response being measured. Low readings indicate greater potency, high ones weaker potency.

Kd, binding result and IC50 data for 20 molecules are collected here from patent US6177557, “High affinity ligands of basic fibroblast growth factor and thrombin” (NeXstar Pharmaceuticals, Inc.).

In series [1] the target is T1, vascular endothelial growth factor (VEGF) (UniProt P15692-4 P15692-4:27-191). In words: filter. The settings on record: chain copies: 2; 6-base G-C stem with blunt end.
T1 sequence (P15692 other isoform, or with tags, fused parts or gaps): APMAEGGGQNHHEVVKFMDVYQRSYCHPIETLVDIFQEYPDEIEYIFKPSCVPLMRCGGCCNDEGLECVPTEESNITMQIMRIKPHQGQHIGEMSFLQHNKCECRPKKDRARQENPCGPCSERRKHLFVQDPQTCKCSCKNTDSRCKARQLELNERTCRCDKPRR
The target in series [2] is human chorionic gonadotropin (human, UniProt P01215;P0DN86 P01215:25-116,P0DN86:21-165). In words: filter. As to conditions: 6-base G-C stem with blunt end.
human chorionic gonadotropin, sequence (P01215 25-116, chain 1 of 2, other chains not shown): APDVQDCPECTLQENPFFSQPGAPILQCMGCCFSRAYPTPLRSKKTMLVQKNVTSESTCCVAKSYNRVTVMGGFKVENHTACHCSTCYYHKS
Series [3] addresses T2, basic fibroblast growth factor (bFGF) (UniProt P09038 P09038:135-288). Nature of the series: filter. The settings on record: tags: Bachem California, 18 kDa, 154 aa; 125I-labeled for receptor assays; 6-base G-C stem with blunt end. How it is done: In order to eliminate higher order structures, all DNA solutions were heated to 90° C. in PBS for 2–3 minutes and cooled on ice prior to incubation with protein. Relative binding affinity of individual ligands to bFGF cannot be predicted from sequence information. The majority of sequence isolates were therefore screened for their ability to bind to bFGF by measuring the fraction of radiolabeled DNA bound to nitrocellulose filters following incubation with 1 nM protein. […] Binding of these select isolates was then analyzed in more detail.
Those ligands are M225, M19, m234, M235, and D12 (SEQ ID NOS:359, 353, 387, 360, 332). The minimum size of the region necessary for binding was determined to be 35 bases for M225, M19 and D12 (See Truncations, Table XXI M225t3 (SEQ ID NO:364), M19t2 (SEQ ID NO:365), D12t2 (SEQ ID NO:341)). The ligand with the smallest essential sequence, m234, was isolated from Family 2, Experiment 3 and contains 24 nucleotides (m234t2 (SEQ ID NO:391)). The truncated ligands were tested for binding to bFGF. After truncation, ligands M225t3, M19t2, D12t2, M235t2, and m234t2 have kd values of 0.7 nM, 1 nM, 1 nM, 1 nM, and 6 nM respectively (Table XXII). All five of the truncated molecules lost some of their affinity for bFGF in comparison to the full length ligands. The binding affinity is regained when an additional G-C base pair is added to the blunt end stem of M225t3. This molecule is termed M225t3GC (SEQ ID NO:443). The binding of M225t3GC is 0.2 nM compared to 0.7 nM for M225t3 without the additional base pair (Table XXII).

In series [4] the target is T2, basic fibroblast growth factor (bFGF). In words: filter; PEG 3400 conjugate. The settings on record: tags: Bachem California, 18 kDa, 154 aa; 125I-labeled for receptor assays.
Series [5] deals with T3, thrombin (alpha) (human, UniProt P00734;P00734 P00734:328-363,P00734:364-622). In words: filter; curve only in figure.
For series [6], the target named is T3, thrombin (alpha). Nature of the series: filter; 100 mM NaCl, 50 mM Tris pH 7.7, 1 mM DTT, 1 mM MgCl2, 37 C.
Series [7] deals with T3, thrombin (alpha). Nature of the series: filter; ERL thrombin, 1 mM MgCl2, 37 C.
In series [8] the target is T2, basic fibroblast growth factor (bFGF). In words: filter; PBS, 0.01% HSA, 1 mM DTT, 37 C; +/-0.5. As to conditions: tags: Bachem California, 18 kDa, 154 aa; 125I-labeled for receptor assays. How it is done:
(§1) This affinity screening allowed identification of those ligands with highest affinity for bFGF. Binding of a group of these ligands was analyzed over a range of bFGF concentrations (FIG. 5) and their dissociation constants.(Kd's) were determined as described (Jellinek et al. (1993) Proc. Natl. Acad. Sci. USA 90:11227–11231) (Table IX). RNA concentrations were determined from their absorbance reading at […] (and were typically <100 pM). Binding reactions were done at 37° C. in phosphate buffered saline containing 0.01% human serum albumin and 1 mM DTT.

For series [9] the target is unchanged. Nature of the series: filter; tested for affinity (*), Family 3; no value given. The settings on record: tags: Bachem California, 154 aa, 18 kDa.
Series [10] shares this target. In words: filter; tested for affinity (*), Family 5; no value given. The settings on record: tags: Bachem California, 154 aa, 18 kDa.
Series [11] has the same target. In words: filter; tested for affinity (*), Family 2; no value given. The settings on record: tags: Bachem California, 154 aa, 18 kDa.
Series [12] has the same target. In words: filter; PBS, 0.01% HSA, 1 mM DTT, 37 C; +/-0.4. The settings on record: tags: Bachem California, 18 kDa, 154 aa; 125I-labeled for receptor assays. How it is done: as §1
Series [13] deals with T3, thrombin (alpha). Nature of the series: filter; curve only in figure; ERL thrombin.
Series [14] has as its target T2, basic fibroblast growth factor (bFGF). In words: filter; PBS, 0.01% HSA, 1 mM DTT, 37 C; +/-1.1. The settings on record: tags: Bachem California, 18 kDa, 154 aa; 125I-labeled for receptor assays. How it is done:
as §1

Series [15] has the same target. In words: filter; PBS, 0.01% HSA, 1 mM DTT, 37 C; +/-0.2. The settings on record: tags: Bachem California, 18 kDa, 154 aa; 125I-labeled for receptor assays. How it is done:
as §1

Series [16] shares this target. In words: filter; PBS, 0.01% HSA, 1 mM DTT, 37 C; +/-0.1. The settings on record: tags: Bachem California, 18 kDa, 154 aa; 125I-labeled for receptor assays. How it is done:
as §1

Series [17] shares this target. In words: competition; displacement from low-affinity receptor on BHK cells; high-affinity receptor >1 uM. The settings on record: tags: Bachem California, 18 kDa, 154 aa; 125I-labeled for receptor assays; label: 32P. How it is done: Additionally, modified RNA ligands 21A (SEQ ID NO:104), 38B (SEQ ID NO:114) and Random RNAs were tested.
Receptor Binding Studies. bFGF was labeled with ^125I by the Iodo-Gen (Pierce) procedure as described by Moscatelli (1987) J. Cell. Physiol. 131:123. […] The amount of ^125I-bFGF bound to the low- and the high-affinity receptor sites was determined as described by Moscatelli (1987) supra.

Series [18] has as its target T3, thrombin (alpha). In words: filter; specificity, data not shown.
For the next series, the target named is antithrombin III (UniProt P01008 P01008:33-464). In words: filter; specificity, data not shown. As to conditions: label: 32P.
antithrombin III, sequence (P01008 33-464, one chain of several): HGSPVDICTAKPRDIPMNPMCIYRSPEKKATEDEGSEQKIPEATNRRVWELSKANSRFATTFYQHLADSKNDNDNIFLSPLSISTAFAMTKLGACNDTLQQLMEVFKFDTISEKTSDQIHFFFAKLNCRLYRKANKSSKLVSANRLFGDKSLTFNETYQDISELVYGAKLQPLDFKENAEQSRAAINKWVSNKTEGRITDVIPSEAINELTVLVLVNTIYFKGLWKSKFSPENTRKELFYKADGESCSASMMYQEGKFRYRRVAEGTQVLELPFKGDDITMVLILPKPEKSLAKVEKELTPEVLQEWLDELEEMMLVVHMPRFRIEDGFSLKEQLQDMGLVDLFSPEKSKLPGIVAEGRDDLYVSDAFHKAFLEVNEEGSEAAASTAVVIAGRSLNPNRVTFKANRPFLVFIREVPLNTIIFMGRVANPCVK
For another series, the target named is acidic FGF (UniProt P05230 P05230:16-155). In words: filter; specificity, data not shown. The settings on record: label: 32P.
acidic FGF, sequence (P05230 16-155, one chain of several): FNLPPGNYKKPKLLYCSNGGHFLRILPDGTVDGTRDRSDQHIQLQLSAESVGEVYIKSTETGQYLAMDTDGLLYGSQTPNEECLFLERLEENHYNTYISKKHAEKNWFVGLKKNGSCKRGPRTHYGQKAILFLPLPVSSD
For series [19], the target named is T1, vascular endothelial growth factor …. In words: filter; specificity, data not shown. The settings on record: chain copies: 2; label: 32P.
Series [20] deals with T3, thrombin (alpha). Nature of the series: filter; 30% binding at 300 nM tracer is not separately tabulated; curve in figure.

T2 sequence (P09038 135-288, one chain of several): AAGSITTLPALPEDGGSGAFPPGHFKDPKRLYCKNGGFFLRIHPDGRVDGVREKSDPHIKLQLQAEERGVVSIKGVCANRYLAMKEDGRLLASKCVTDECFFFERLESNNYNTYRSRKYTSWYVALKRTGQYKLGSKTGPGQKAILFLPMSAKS

B1: M225t3 (ssDNA)
DNA: GCGGGGCTACGTACCGGGGCTTTGTAAAACCCCGC
As to B1, the dissociation constant (Kd) in series [1] is over 200 nM; in series [2], over 200 nM; in [3], 0.7 nM.

B2: PEG-M225t3 (ssDNA)
DNA: GCGGGGCTACGTACCGGGGCTTTGTAAAACCCCGC
modifications: PEG 3400 on 3' amino linker
Consider B2, for which the affinity in series [4], expressed as Kd, was 1 nM.

B3: thrombin Class I RNA 6 (ssRNA)
RNA: AGAUGCCUGUCGAGCAUGCUGAGGAUCGAAGUUAGUAGGCUUUGUGUGCUCGUAGCUAAACAGCUUUGUCGACGGG
As to B3, the binding result with thrombin (alpha) [5] is “binds”.

B4: thrombin Class II RNA 27 (ssRNA)
RNA: AGAUGCCUGUCGAGCAUGCUGGUGCGGCUUUGGGCGCCGUGCUUGACGUAGCUAAACAGCUUUGUCGACGGG
In the series with thrombin (alpha) [6], B4 returned a dissociation constant Kd of about 60 nM.

B5: G15D (ssDNA)
DNA: GGTTGGTGTGGTTGG
For the molecule B5, the Kd in the series with thrombin (alpha) [7] was about 200 nM.

B6: 2'-NH2 72B (ssRNA)
RNA: GGGAGGACGAUGCGGCUCAGCAUCCAGGAAGGGGACUUGGUAGGGCACCAUCGAGAUCUUGGCGUCAGACGACUCGCCCGA
modifications: 2'-NH2 pyrimidines
For B6, in series [8], the equilibrium dissociation constant (Kd) is 3.4 nM. This lies in the single-digit nanomolar range.

B7: m219 (ssDNA)
DNA: GGGAGGACGATGCGGGCAGCGACCGCGGTACAAGGCATAGGGTACAGACGACGACGGGGA
Turning to B7, the binding result in series [9] is given as “binds”.

B8: d1 (ssDNA)
DNA: ATCCGCCTGATTAGCGATACTACACCCAACCCCCTAAGATTTTAGAGCAACTCGGCGCAACACTTGAGCAAAATCACCTGCAGGGG
As to B8, the binding result in series [10] is reported as “binds”.

B9: d46 (ssDNA)
DNA: ATCCGCCTGATTAGCGATACTAACACGGTCTGCTGCGACCCCTCGTACTAACGGTACCAGTACTTGAGCAAAATCACCTGCAGGGG
Consider B9, for which, in series [11], the binding result is listed as “binds”.

B10: 2'-NH2 34B (ssRNA)
RNA: GGGAGGACGAUGCGGAACGGGAGGUACGAGAGCGGGAGCGCAUAAAUAGGAAACUCCUUGCACGUCAGACGACUCGCCCGA
modifications: 2'-NH2 pyrimidines
For the molecule B10, binding in [12] was put at a Kd of 2 nM. This lies in the single-digit nanomolar range.

B11: 24R (Class I clone 16 hairpin) (ssRNA)
RNA: CCGGAUCGAAGUUAGUAGGCCGAG
Take B11: the binding result in the series with thrombin (alpha) [13] is “binds”.

B12: 2'-NH2 48B (ssRNA)
RNA: GGGAGGACGAUGCGGCAGGAUAGGAUGGGGUCGGAACCGUGUAUCAUAACGAGUCAUCUCCUGGUCAGACGACUCGCCCGA
modifications: 2'-NH2 pyrimidines
B12 displayed a Kd in series [14] of 6.7 nM.

B13: d9 (ssDNA)
DNA: ATCCGCCTGATTAGCGATACTCGAAGAGTAGGAGGCGATCCGCTCCGTATCAGGTCACATAGGACTTGAGCAAAATCACCTGCAGGGG
In the case of B13, in series [10], the binding result was “binds”.

B14: 2'-NH2 59A (ssRNA)
RNA: GGGAGACAAGAAUAACGCUCAAUGUGUGGAAGGGUACCUGAGUGGGGAUGGGUUCGACAGGAGGCUCACAACAGGC
modifications: 2'-NH2 pyrimidines
In series [15], B14 showed a dissociation constant (Kd) of 1.2 nM. This lies in the single-digit nanomolar range.

B15: thrombin Class I RNA 18 (ssRNA)
RNA: AGAUGCCUGUCGAGCAUGCUGAUUGUUGCGGAUCGAAGUGAGUAGGCGCUAGUAGCUAAACAGCUUUGUCGACGGG
For the molecule B15, the binding result in the series with thrombin (alpha) [5] is “binds”.

B16: thrombin Class I RNA 16 (ssRNA)
RNA: AGAUGCCUGUCGAGCAUGCUGCAUCCGGAUCGAAGUUAGUAGGCCGAGGUGGUAGCUAAACAGCUUUGUCGACGGG
In the case of B16, in the series with thrombin (alpha) [6], the dissociation constant Kd is about 30 nM.

B17: d44 (ssDNA)
DNA: ATCCGCCTGATTAGCGATACTGACCACGACTGATGCGTCGCCTCCCGATAGGCAGTTACCCACTTGAGCAAAATCACCTGCAGGGG
For B17, the binding result in series [11] is reported as “binds”.

B18: 2'-NH2 21A (ssRNA)
RNA: GGGAGACAAGAAUAACGCUCAAGUAGACUAAUGUGUGGAAGACAGCGGGUGGUUCGACAGGAGGCUCACAACAGGC
modifications: 2'-NH2 pyrimidines
Molecule B18 registered a Kd in [16] of 1.3 nM.

B19: 12A (ssRNA)
RNA: GGGAGCUCAGAAUAAACGCUCAAGGGGCAACGCUACAGACAAGUGCACCCAACUUCGACAUGAGGCCCGGAUCCGGC
Regarding B19, in [17], the IC50 was over 100 nM. The Kd (with thrombin (alpha) [18]; in the series with antithrombin III; in the series with acidic FGF; in series [19]) was over 300 nM throughout.

B20: 33R (Class II clone 27 hairpin) (ssRNA)
RNA: GAGCAUGCUGGUGCGGCUUUGGGCGCCGUGCUU
For the molecule B20, the binding result with thrombin (alpha) [20] is given as “binds”.
